Among the data in patent EP4545563A1 (Foreseen Technology (Beijing) Co., Ltd., dated 2024) are EC50 values, retold here.

The target in assay [1] is T1, ITGA2 protein on the surface of human tumor cells (HuCCT1, A431) (human, UniProt P17301 30-1181).
T1 construct: whole, on cells; Endogenously expressed on the cell lines; the cell line of each entry is named under assay or readout; also called Integrin alpha-2; ITGA2-positive HuCCT1 cells
T1 sequence (looked up): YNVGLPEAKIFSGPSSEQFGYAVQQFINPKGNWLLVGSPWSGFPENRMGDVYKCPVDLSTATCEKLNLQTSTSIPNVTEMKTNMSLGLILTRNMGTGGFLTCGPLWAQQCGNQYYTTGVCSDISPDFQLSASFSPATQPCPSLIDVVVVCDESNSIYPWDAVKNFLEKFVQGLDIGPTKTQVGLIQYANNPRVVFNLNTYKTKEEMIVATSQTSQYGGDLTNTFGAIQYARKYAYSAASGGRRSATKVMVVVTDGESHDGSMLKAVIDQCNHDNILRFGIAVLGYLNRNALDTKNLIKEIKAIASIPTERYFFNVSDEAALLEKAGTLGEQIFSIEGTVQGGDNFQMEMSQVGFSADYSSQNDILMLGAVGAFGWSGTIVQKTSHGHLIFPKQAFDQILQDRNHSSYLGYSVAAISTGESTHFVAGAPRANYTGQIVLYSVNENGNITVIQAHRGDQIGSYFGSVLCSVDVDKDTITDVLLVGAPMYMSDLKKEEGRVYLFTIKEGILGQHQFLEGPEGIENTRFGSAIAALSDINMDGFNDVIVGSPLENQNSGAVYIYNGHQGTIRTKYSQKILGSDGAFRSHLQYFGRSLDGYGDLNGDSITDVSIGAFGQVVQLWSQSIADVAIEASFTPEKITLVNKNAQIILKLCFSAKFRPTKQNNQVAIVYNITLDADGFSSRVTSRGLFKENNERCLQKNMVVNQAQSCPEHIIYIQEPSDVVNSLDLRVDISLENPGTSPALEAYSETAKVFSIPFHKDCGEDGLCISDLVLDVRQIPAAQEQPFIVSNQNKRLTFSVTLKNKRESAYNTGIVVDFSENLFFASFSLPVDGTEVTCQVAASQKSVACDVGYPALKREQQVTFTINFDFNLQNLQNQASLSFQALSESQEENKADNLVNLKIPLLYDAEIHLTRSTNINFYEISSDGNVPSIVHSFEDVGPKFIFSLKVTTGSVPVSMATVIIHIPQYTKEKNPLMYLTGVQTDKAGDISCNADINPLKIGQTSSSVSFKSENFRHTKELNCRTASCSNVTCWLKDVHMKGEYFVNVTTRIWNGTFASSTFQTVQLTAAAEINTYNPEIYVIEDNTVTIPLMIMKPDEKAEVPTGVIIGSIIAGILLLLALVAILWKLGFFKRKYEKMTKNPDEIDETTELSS
The assay can be described thus: flow cytometry on HuCCT1 cells, goat anti-human IgG (H+L) secondary antibody. In general terms: Flow cytometry measures light scatter and fluorescence of single cells or particles in a stream.

Assay [2] has as its target T2, ITGA2-His (human, UniProt P17301 30-1132, limits assumed).
T2 construct: also called ITGA2 protein; not shown: His tag
T2 sequence (looked up): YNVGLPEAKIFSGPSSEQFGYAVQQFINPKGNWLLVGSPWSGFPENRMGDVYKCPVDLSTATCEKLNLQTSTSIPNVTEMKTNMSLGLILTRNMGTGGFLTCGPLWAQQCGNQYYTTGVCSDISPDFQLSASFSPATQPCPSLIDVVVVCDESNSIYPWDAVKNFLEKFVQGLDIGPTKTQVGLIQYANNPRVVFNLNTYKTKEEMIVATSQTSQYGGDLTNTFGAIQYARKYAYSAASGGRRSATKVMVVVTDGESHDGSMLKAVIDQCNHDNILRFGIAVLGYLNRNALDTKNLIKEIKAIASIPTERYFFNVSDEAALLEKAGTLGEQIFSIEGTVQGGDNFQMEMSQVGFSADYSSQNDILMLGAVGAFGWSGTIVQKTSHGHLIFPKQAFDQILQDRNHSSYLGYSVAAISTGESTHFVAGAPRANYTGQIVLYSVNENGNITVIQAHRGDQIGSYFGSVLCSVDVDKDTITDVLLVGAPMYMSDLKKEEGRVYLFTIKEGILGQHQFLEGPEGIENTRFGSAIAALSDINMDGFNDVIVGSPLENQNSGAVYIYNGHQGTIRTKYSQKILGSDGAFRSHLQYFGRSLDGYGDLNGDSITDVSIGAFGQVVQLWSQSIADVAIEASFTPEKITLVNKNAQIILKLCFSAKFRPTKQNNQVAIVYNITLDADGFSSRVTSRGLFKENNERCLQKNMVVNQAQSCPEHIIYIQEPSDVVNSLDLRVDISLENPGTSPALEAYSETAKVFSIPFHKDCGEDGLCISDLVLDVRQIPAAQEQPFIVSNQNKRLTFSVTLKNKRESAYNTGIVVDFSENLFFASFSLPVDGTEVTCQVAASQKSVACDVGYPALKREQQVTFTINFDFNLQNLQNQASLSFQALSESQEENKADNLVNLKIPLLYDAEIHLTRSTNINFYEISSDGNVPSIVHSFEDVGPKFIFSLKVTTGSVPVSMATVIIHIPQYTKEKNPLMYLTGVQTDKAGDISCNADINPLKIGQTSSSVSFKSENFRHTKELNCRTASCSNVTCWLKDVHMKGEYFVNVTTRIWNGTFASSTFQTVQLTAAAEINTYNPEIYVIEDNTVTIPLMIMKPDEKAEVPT
As to the kind of experiment: ELISA, plate coated with 2 ug/mL ITGA2-His, anti-human IgG-Fc-HRP detection. In general terms: ELISA stands for enzyme-linked immunosorbent assay.

B1: Humanized antibody FS002-C15 (antibody, human IgG1, kappa, V domains shown)
VH: QLQLQESGPGLVKPSETLSLTCTVSGGSISSSSYYWGWIRQPPGKGLEWIGSIYYSGSTYYNPSLKSRVTISVDTSKNQFSLKLSSVTAADTAVYYCARLTIFGVVLYWGQGTLVTVSS
VL: EIVLTQSPATLSLSPGERATLSCQASQTFSDYLAWYQQKPGQAPRLLIYDASTRATGIPARFSGSGSGTDFTLTISSLEPEDFAVYYCQQRSHWPPGYTFGQGTRVEIKR
notes: IgG1 heavy chain, kappa light chain
Regarding B1, the half-maximal effective concentration (EC50) in assay [1] came to 2.13 nM; in assay [2], 0.044 nM.

B2: Humanized antibody FS002-C330 (antibody, V domains shown)
VH: QLQLQESGPGLVKPSGTLSLTCAVSGGSISSSNWWSWVRQPPGKGLEWIGEIYHSGSTNYNPSLKSRVTISVDKSKNQFSLKLSSVTAADTAVYYCARAHSRYYYGLDYWGQGTLVTVSS
VL: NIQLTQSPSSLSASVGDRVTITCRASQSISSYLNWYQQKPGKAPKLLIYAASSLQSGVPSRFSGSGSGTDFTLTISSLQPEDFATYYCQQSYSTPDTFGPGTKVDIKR
notes: as for B1
For the molecule B2, the concentration giving a half-maximal response (EC50) in assay [1] came to 2.07 nM; in assay [2], 0.103 nM.

B3: Humanized antibody FS002-C216 (antibody, human IgG1, kappa, V domains shown)
VH: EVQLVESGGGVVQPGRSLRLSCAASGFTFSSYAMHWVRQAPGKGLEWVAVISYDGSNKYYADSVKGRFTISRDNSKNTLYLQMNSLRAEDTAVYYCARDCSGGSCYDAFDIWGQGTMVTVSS
VL: EIVLTQSPATLSLSPGERATLSCRASQSVSSYLAWYQQKPGQAPRLLIYDASNRATGIPARFSGSGSGTDFTLTISSLEPEDFAVYYCQQRTNWLMYTFGQGTKLEIKR
notes: as for B1
With B3, the concentration giving a half-maximal response (EC50) in assay [1] amounted to 0.987 nM; in assay [2], 0.073 nM.

B4: Vatelizumab (antibody, V domains shown)
VH: QVQLQESGPGLVKPSETLSLTCTVSGFSLTNYGIHWIRQPPGKGLEWLGVIWARGFTNYNSALMSRLTISKDNSKNQVSLKLSSVTAADTAVYYCARANDGVYYAMDYWGQGTLVTVSS
VL: DFVMTQSPAFLSVTPGEKVTITCSAQSSVNYIHWYQQKPDQAPKKLIYDTSKLASGVPSRFSGSGSGTDYTFTISSLEAEDAATYYCQQWTTNPLTFGQGTKVEIK
As to B4, the EC50 in assay [1] stood at 0.793 nM; in assay [2], 0.023 nM.

B5: Humanized antibody FS002-C153 (antibody, human IgG1, lambda, V domains shown)
VH: QVQLQQWGAELVKPGASVKLSCTASGFNIKDTYMHWVKQRPEQGLEWIGRIDPANGNTKYDPKFQGKATITADTSSNTAYLQLSSLTSEDTAVYYCARSYYRYDGYFDVWGAGTMVTVSS
VL: QSALTQPASVSGSPGQSITISCTGTSSDVGGYNYVSWYQQHPGKAPKLMIYDVSNRPSGVSNRFSGSKSGNTASLTISGLQAEDEADYYCSSFTTITTRVFGGGTKLTVLG
notes: IgG1 heavy chain, lambda light chain
Turning to B5, the EC50 in assay [1] worked out at 3.63 nM; in assay [2], 0.087 nM.

B6: Humanized antibody FS002-C417 (antibody, human IgG1, kappa, V domains shown)
VH: EVQLVESGGVVVQPGGSLRLSCAASGFTFDDYTMHWVRQAPGKGLEWVSLISWDGGSTYYADSVKGRFTISRDNAKNTLYLQMNSLRAEDTAVYYCARDTGYAMDVWGQGTMVTVSS
VL: NIQMTQSPSSLSASVGDRVTITCRASQSISSYLNWYQQKPGKAPKLLIYAASSLQSGVPSRFSGSGSGTDFTLTISSLQPEDFASYYCQQSYSSWAFGQGTKVEIKR
notes: as for B1
For B6, the EC50 in assay [1] worked out at 68.4 nM; in assay [2], 0.156 nM.

B7: Humanized antibody FS002-A10 (antibody, human IgG1, kappa, V domains shown)
VH: QVQLQQSGPGLVKPSQTLSLTCAISGDSVSSDSAAWNWIRQSPSRGLEWLGRTYYRSKWYNDYAVSVKSRITINPDTSKNQFSLQLNSVTSDDTAVYYCARGSWAAPWLWGQGTLVTVSS
VL: NIQLTQSPPFLSASVGDRVTITCRASQDISSFLAWYQQKPGKAPNLLIHAATTLQSGVPSRFSGSGSGTEFTLTISSLRPEDFATYYCQQLHTYPITFGQGTRLEIKR
notes: as for B1
For B7, the EC50 in assay [1] is 1.13 nM; in assay [2], 0.021 nM.

B8: Humanized antibody FS002-C9 (antibody, human IgG1, kappa, V domains shown)
VH: QVQLLESGPGLVKPSQTVSLTCTVSGVSISRGVYSWSWIRQHPGKGLEWIGFIDYNGRTDYNPSLKSRVTISQDTSKNDFSLKLTSVTAADTAIYYCARGLHAFDIWGQGTMVTVSS
VL: NIQMTQSPPSLSASVGDRVAITCRASQDISNSLAWYQQKSGQPPKLLLYDVSKLERGVPSRFSGSGSRTDYTLTISSLQPEDFATYYCQQYSSDPTFGQGSKLEFKR
notes: as for B1
Regarding B8, the values for the 50% effective concentration (EC50) in assay [1] and in assay [2] were 34.6 nM and 12.1 nM, respectively.

B9: Humanized antibody FS002-A15 (antibody, human IgG1, kappa, V domains shown)
VH: RLQLQESGPGLVKPSQTLSLTCTVSGGSISSGGYYWSWIRQHPGKGLEWIGYIYYSGSTYYNPSLKSRVTISVDTSKNQFSLKLSSVTAADTAVYYCARATIYGYFDYWGQGTLVTVSS
VL: EIVLTQSPATLPLSPGERATLSCRASQSVGFYLAWYQQKPGQPPRLLFYDASKRATGIPARFSASGSGTDFTLTISGLEPEDFAVYYCQHRISWPLTFGQGTKVEVKR
notes: as for B1
B9: the EC50 in assay [1] is 0.927 nM; in assay [2], 0.028 nM.

B10: Humanized antibody FS002-C241 (antibody, human IgG1, lambda, V domains shown)
VH: RLQLQESGPGLVKPSETLSLTCTVSGGSISSSSYYWGWIRQPPGKGLEWIGSIYYSGSTYYNPSLKSRVTISVDTSKNQFSLKLSSVTAADTAVYYCARRYSYGRDAFDIWGQGTMVTVSS
VL: QSALTQPASVSGSPGQSITISCSGTSSDIGRYNYVSWYQQHPGKAPKLLIFDVSNRPSGVSNRFSGSKSGNTASLTISGLQAEDEADYYCSSYTSTVPYVFGTGTRVAVQG
notes: as for B5
Consider B10, for which the concentration giving a half-maximal response (EC50) in assay [1] amounted to 2.41 nM; in assay [2], 0.116 nM.

B11: Humanized antibody FS002-A1 (antibody, V domains shown)
VH: QVQLVQSGAEVKKPGASVKVSCKASGYTFTSYYMHWVRQAPGQGLEWMGIINPSGGSTSYAQKFQGRVTMTRDTSTSTVYMELSSLRSEDTAVYYCARDISGSYQTDAFDIWGQGTMVTVSS
VL: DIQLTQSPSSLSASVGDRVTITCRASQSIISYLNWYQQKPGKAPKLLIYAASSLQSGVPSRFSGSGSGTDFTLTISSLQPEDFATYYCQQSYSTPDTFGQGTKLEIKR
notes: IgG1 heavy chain, kappa light chain; expressed in ExpiCHO-s cells, Protein A purified
In the case of B11, the half-maximal effective concentration (EC50) in assay [1] came to 0.653 nM; in assay [2], 0.029 nM.

B12: Humanized antibody FS002-C375 (antibody, human IgG1, kappa, V domains shown)
VH: QVQLQESGPGLVKPSQTLSLTCTVSGGSISSGGYYWSWIRQHPGKGLEWIGYIYYSGSTYYNPSLKSRVTISVDTSKNQFSLKLSSVTAADTAVYYCARVGVALHYGMDVWGQGTTVTVSS
VL: EIVLTQSPATLSLSPGERATLSCRASQSVSSYLAWYQQKPGQAPRLLIYDASNRATGIPARFSGSGSGTDFTLTISSLEPEDFAVYYCQQRSNWPLTFGGGTKVEIKR
notes: as for B1
B12: the 50% effective concentration (EC50) in assay [1] was determined as 2.17 nM; in assay [2] it was 0.073 nM.

B13: Humanized antibody FS002-C58 (antibody, human IgG1, kappa, V domains shown)
VH: EVQLLESGGGVVQPGRSLRLSCAASGFTFSSYAMHWVRQAPGKGLEWVAVISYDGSNKYYADSVKGRFTISRDNSKNTLYLQMNSLRAEDTAVYYCARGKYNWFDPWGQGTLVTVSS
VL: EIVLTQSPATLSLSPGERATLSCRASQSVYSSLAWYQQKPGQAPKLLIYDASNRATGVPARFSGSGSGTDFTLTISSLEPEDFALYYCQHRQHWPLTFGGGTKVEIKR
notes: as for B1
Take B13: the EC50 in assay [1] was determined as 9.48 nM; in assay [2], 0.279 nM.

The EC50 is the concentration giving half of the maximal effect.
